Km and kcat data for 1 substance are collected here from publication PMC8608799, “The main oxidative inactivation pathway of the plant hormone auxin” (Nature Communications, 2021).

Common to all, as to format: biochemical, Arabidopsis thaliana
What all share (conditions): 1 mM MnCl2, 0.5 mM dithiothreitol, 50 mM Tris-HCl pH 7.4, 32 °C

For data set [1], the system named is O=C(O)C[C@H](NC(=O)Cc1c[nH]c2ccccc12)C(=O)O. As to the kind of experiment: HPLC of hydrolysis product, kinetics.
In data set [2] the test system is O=C(O)CC[C@H](NC(=O)Cc1c[nH]c2ccccc12)C(=O)O. The data set can be described thus: HPLC of hydrolysis product, kinetics.
The test system of data set [3] is O=C(O)C[C@H](NC(=O)CC1C(=O)Nc2ccccc21)C(=O)O. As to the kind of experiment: HPLC of hydrolysis product, kinetics.
Data set [4] has as its system O=C(O)CC[C@H](NC(=O)CC1C(=O)Nc2ccccc21)C(=O)O. The data set can be described thus: HPLC of hydrolysis product, Lineweaver-Burk.

Chain of GST-ILR1 (Arabidopsis thaliana) (chain, as listed by the source): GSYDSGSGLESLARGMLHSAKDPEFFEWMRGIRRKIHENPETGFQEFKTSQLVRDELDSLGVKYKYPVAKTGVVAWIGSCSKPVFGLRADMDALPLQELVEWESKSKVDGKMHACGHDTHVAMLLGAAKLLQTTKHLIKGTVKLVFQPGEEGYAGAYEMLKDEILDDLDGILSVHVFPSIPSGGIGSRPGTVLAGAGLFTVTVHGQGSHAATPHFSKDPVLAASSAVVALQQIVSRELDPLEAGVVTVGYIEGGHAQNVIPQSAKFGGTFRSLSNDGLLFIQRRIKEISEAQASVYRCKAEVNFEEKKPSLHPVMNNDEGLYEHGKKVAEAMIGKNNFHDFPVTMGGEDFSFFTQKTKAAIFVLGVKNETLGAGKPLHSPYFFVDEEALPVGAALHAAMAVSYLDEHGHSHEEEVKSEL

By Km is commonly meant the concentration of substrate that gives half-maximal velocity. By kcat is commonly meant the maximal rate divided by the concentration of active sites. Turning to GST-ILR1 (Arabidopsis thaliana), the Km amounted to 340.087 ± 41.4597 µM in data set [1], 59.9723 ± 7.5726 µM in data set [2], 130.125 ± 25.3236 µM in data set [3] and 2.71 ± 0.34 µM in data set [4]. The kcat in data set [1] came out at 0.0025 s⁻¹; in data set [2], 0.021 s⁻¹; in data set [3] it was 0.0036 s⁻¹; in data set [4] it was 0.0089 s⁻¹.
